We go through one substance from US20070054344.

Data set [1] deals with T1, N-terminal-valine fructosylated peptide having an amino acid sequence represented by SEQ ID NO: 2.
T1 sequence: VHL

In a further data set the test system is T2, f-VHLTPE.
T2 sequence: VHLTPE

A further data set concerns T3, f-VHLTP.
T3 sequence: VHLTP

The subject of a further data set is T4, f-VHLT.
T4 sequence: VHLT

Data set [2] deals with T5, fructosyl valyl histidine.
T5 sequence: VH

As for “defructosylation enzyme originating from a plant belonging to the family Zingiberaceae (Zingiber officinale rhizome)”, in data set [1], the Absorbance at 700 nm (mAbs), colour development of DA-64 (hydrogen peroxide produced) stood at 570 mAbs; the “capillary electrophoresis peak area after 16 hours of reaction at 37° C. (defructosylation)” value is “the peak attributed to f-VHL does not exist and the peak attributed to VHL is increased (area: 32 mABU×sec)”; the “enzyme activity with the peptide as a substrate” value (“enzyme activity with the peptide” below) is “the enzyme is effective on fructosyl valine and at least fructosyl peptides having amino acid sequences represented by SEQ ID NOs: 1 to 5”. Also, in the data set on f-VHLTPE, the Absorbance at 700 nm (mAbs), colour development of DA-64 (hydrogen peroxide produced) was found to be 223 mAbs; the “enzyme activity with the peptide” value is “the enzyme is effective on fructosyl valine and at least fructosyl peptides having amino acid sequences represented by SEQ ID NOs: 1 to 5”. Also, in the data set on f-VHLTP, the Absorbance at 700 nm (mAbs), colour development of DA-64 (hydrogen peroxide produced) is 198 mAbs; the “enzyme activity with the peptide” value is “the enzyme is effective on fructosyl valine and at least fructosyl peptides having amino acid sequences represented by SEQ ID NOs: 1 to 5”. In the data set with f-VHLT, the Absorbance at 700 nm (mAbs), colour development of DA-64 (hydrogen peroxide produced) is 558 mAbs; the “enzyme activity with the peptide” value was “the enzyme is effective on fructosyl valine and at least fructosyl peptides having amino acid sequences represented by SEQ ID NOs: 1 to 5”. Besides, in data set [2], the Absorbance at 700 nm (mAbs), colour development of DA-64 (hydrogen peroxide produced) worked out at 735 mAbs; the “Michaelis constant (Km), Lineweaver-Burk's plots of enzyme activity (glucosone production)” value is “the Km value of the enzyme for fructosyl valyl histidine: 1.2 mM”; the “absorbance at 550 nm (glucosone produced, glucose oxidase/peroxidase colour system)” value is reported as “The absorbance was found to increase in accordance with the increase in concentration of fructosyl valyl histidine”; the “enzyme activity with the peptide” value is “the enzyme is effective on fructosyl valine and at least fructosyl peptides having amino acid sequences represented by SEQ ID NOs: 1 to 5”.
